Laboratory results published in patent US11344606B2, “Parathyroid hormone fusion polypeptide” (University of Sheffield, priority 2017, dated 2022).

Assays:
[1] = system: UMR-106 cells (PTH responsive cell line); assay: In vitro induction of cAMP in UMR-106 cells (cAMP ELISA); assay type: cell-based, rat
Description: FIG. 3: In Vitro Bioactivity of 14A1 and 14A2 proteins. Purified proteins were tested for their ability to stimulate cAMP production from the PTH responsive cell line, UMR-106 (rat osteoblastic like cell line). Cells were stimulated for 15 minutes in the presence of test molecules and cAMP levels measured from cell lysates using a cAMP specific Elisa. […] Data is presented as pmol cAMP/ml+/−Standard deviation;
FIG. 29A: In vitro induction of cAMP. […] Cells were lysed and cAMP levels measured using an R & D systems Parameter cAMP Elisa. Data are presented as log pmol cAMP/ml±SD. […] Average of n=1 experiment carried out in duplicate.
Purified proteins were tested for their ability to stimulate cAMP production from the PTH responsive cell line, UMR-106 (rat osteoblastic like cell line). Cells were stimulated for 15 minutes in the presence of test molecules and cAMP levels measured from cell lysates using a cAMP specific Elisa (R&D systems).

UMR-106 cells = assay: Dual Luciferase Reporter Assay for cAMP activity (pGL4.29/CRE/Luc2) in UMR-106 cells; assay type: cell-based, rat; conditions: FIG. 29D
Description: Cells were lysed and Luciferase activity measured using the Promega Dual Luciferase Assay kit. Data are presented as fold induction of control±SD. […] Average of triplicate values. […] Representative of 3 separate experiments.
Cells were lysed and Luciferase activity measured using the Promega Dual Luciferase Assay kit. Data are presented as fold induction of control±SD.
FIG. 29D: Determination of EC50 values for PTH & PTH fusions using the Dual Luciferase Reporter Assay.

[2] = 500 nM PTH fusion, 15 minutes at 37° C./5% CO2, FIG. 29A, n=1 experiment in duplicate

In the case of `CC[C@H](C)[C@H](NC(=O)[C@H](CCC(=O)O)NC(=O)[C@H](CO)NC(=O)[C@@H](NC(=O)[C@@H](N)CO)C(C)C)C(=O)N[C@@H](CCC(N)=O)C(=O)N[C@@H](CC(C)C)C(=O)N[C@@H](CCSC)C(=O)N[C@@H](Cc1c[nH]cn1)C(=O)N[C@@H](CC(N)=O)C(=O)N[C@@H](CC(C)C)C(=O)NCC(=O)N[C@@H](CCCCN)C(=O)N[C@@H](Cc1c[nH]cn1)C(=O)N[C@@H](CC(C)C)C(=O)N[C@@H](CC(N)=O)C(=O)N[C@@H](CO)C(=O)N[C@@H](CCSC)C(=O)N[C@@H](CCC(=O)O)C(=O)N[C@@H](CCCNC(=N)N)C(=O)N[C@H](C(=O)N[C@@H](CCC(=O)O)C(=O)N[C@@H](Cc1c[nH]c2ccccc12)C(=O)N[C@@H](CC(C)C)C(=O)N[C@@H](CCCNC(=N)N)C(=O)N[C@@H](CCCCN)C(=O)N[C@@H](CCCCN)C(=O)N[C@@H](CC(C)C)C(=O)N[C@@H](CCC(N)=O)C(=O)N[C@@H](CC(=O)O)C(=O)N[C@H](C(=O)N[C@@H](Cc1c[nH]cn1)C(=O)N[C@@H](CC(N)=O)C(=O)N[C@@H](Cc1ccccc1)C(=O)O)C(C)C)C(C)C` [PTH 1-34, reference compound], the “cAMP levels (mean±SD)” value ([1]; 100 nM human PTH 1-34, 15 minutes at 37° C./5% CO2, FIG. 29A) is reported as 2551±186 pmol cAMP/ml.

B1: 14A2c: PTHss-pp-PTH (1-34)-(g4s)4-PTHrExt-(g4s)4-GHbp, SEQ ID NO: 13 (protein)
chain: MIPAKDMAKVMIVMLAICFLTKSDGKSVKKRSVSEIQLMHNLGKHLNSMERVEWLRKKLQDVHNFGGGGSGGGGSGGGGSGGGGSDDVMTKEEQIFLLHRAQAQCEKRLKEVLQRPASIMESDKGWTSASTSGKPRKDKASGKLYPESEEDKEAPTGSRYRGRPCLPEWDHILCWPLGAPGEVVAVPCPDYIYDFNHKGHAYRRCDRNGSWELVPGHNRTWANYSECVKFLTNETREREVFDRLGGGGSGGGGSGGGGSGGGGSFSGSEATAAILSRAPWSLQSVNPGLKTNSSKEPKFTKCRSPERETFSCHWTDEVHHGTKNLGPIQLFYTRRNTQEWTQEWKECPDYVSAGENSCYFNSSFTSIAIPYCIKLTSNGGTVDEKCFSVDEIVQPDPPIALNWTLLNVSLTGIHADIQVRWEAPRNADIQKGWMVLEYELQYKEVNETKWKMMDPILTTSVPVYSLKVDKEYEVRVRSKQRNSGNYGEFSEVLYVTLPQMSQ
modifications: Fusion proteins
B1 was tested, and the “fold by which PTH is more potent than the fusion (EC50 ratio)” value (UMR-106 cells) was roughly 18 fold and the “cAMP levels (mean±SD)” value [1, 2] was 264±12 pmol cAMP/ml.

B2: 14A3b: GHss-PTH (1-34)-(g4s)4-PTHrExt-(g4s)4-GHbp, SEQ ID NO: 14 (protein)
chain: MATGSRTSLLLAFGLLCLPWLQEGSASVSEIQLMHNLGKHLNSMERVEWLRKKLQDVHNFGGGGSGGGGSGGGGSGGGGSDDVMTKEEQIFLLHRAQAQCEKRLKEVLQRPASIMESDKGWTSASTSGKPRKDKASGKLYPESEEDKEAPTGSRYRGRPCLPEWDHILCWPLGAPGEVVAVPCPDYIYDFNHKGHAYRRCDRNGSWELVPGHNRTWANYSECVKFLTNETREREVFDRLGGGGSGGGGSGGGGSGGGGSFSGSEATAAILSRAPWSLQSVNPGLKTNSSKEPKFTKCRSPERETFSCHWTDEVHHGTKNLGPIQLFYTRRNTQEWTQEWKECPDYVSAGENSCYFNSSFTSIAIPYCIKLTSNGGTVDEKCFSVDEIVQPDPPIALNWTLLNVSLTGIHADIQVRWEAPRNADIQKGWMVLEYELQYKEVNETKWKMMDPILTTSVPVYSLKVDKEYEVRVRSKQRNSGNYGEFSEVLYVTLPQMSQ
modifications: Fusion proteins
B2 was tested, and the “fold by which PTH is more potent than the fusion (EC50 ratio)” value (UMR-106 cells) was 28 fold and the “cAMP levels (mean±SD)” value [1, 2] was 25±0.95 pmol cAMP/ml.
